The labels stand for the following.
B1: mAb3 (felinized anti-NGF antibody ZTS-768) S428A, feline IgG1a (antibody)
heavy: DVQLVESGGDLVKPGGSLRLTCVASGFTYSNYWMHWVRQAPGKGLQWVARIDPYGGGTKHNEKFKRRFTISRDNAKNTLYLQMNSLKTEDTATYYCVRSGYDYYFDVWGQGTLVTVSSASTTAPSVFPLAPSCGTTSGATVALACLVLGYFPEPVTVSWNSGALTSGVHTFPAVLQASGLYSLSSMVTVPSSRWLSDTFTCNVAHPPSNTKVDKTVRKTDHPPGPKPCDCPKCPPPEMLGGPSIFIFPPKPKDTLSISRTPEVTCLVVDLGPDDSDVQITWFVDNTQVYTAKTSPREEQFNSTYRVVSVLPILHQDWLKGKEFKCKVNSKSLPSPIERTISKAKGQPHEPQVYVLPPAQEELSRNKVSVTCLIKSFHPPDIAVEWEITGQPEPENNYRTTPPQLDSDGTYFVYSKLSVDRSHWQRGNTYTCSVAHEALHSHHTQKSLTQSPGK
light: EIQMTQSPSSLSASPGDRVTITCRASENIYSFLAWYQQKPGKVPKLLIYNANTLAEGVPSRFSGSGSGTDFTLTISSLEPEDAATYYCQHHFGTPFTFGSGTKLEIKRSDAQPSVFLFQPSLDELHTGSASIVCILNDFYPKEVNVKWKVDGVVQNKGIQESTTEQNSKDSTYSLSSTLTMSSTEYQSHEKFSCEVTHKSLASTLVKSFQRSECQRE
notes: also called mAb3 ID No. 89
B2: mAb3 (felinized anti-NGF antibody ZTS-768) S428F, feline IgG1a (antibody)
heavy: B1 heavy with A434F
light: B1 light
notes: also called mAb3 ID No. 93
B3: mAb3 (felinized anti-NGF antibody ZTS-768) S428W, feline IgG1a (antibody)
heavy: B1 heavy with A434W
light: B1 light
B4: mAb3 (felinized anti-NGF antibody ZTS-768) S428H, feline IgG1a (antibody)
heavy: B1 heavy with A434H
light: B1 light
notes: also called mAb3 ID No. 95
B5: mAb3 (felinized anti-NGF antibody ZTS-768) S428Q, feline IgG1a (antibody)
heavy: B1 heavy with A434Q
light: B1 light
B6: mAb3 (felinized anti-NGF antibody ZTS-768) S428M, feline IgG1a (antibody)
heavy: B1 heavy with A434M
light: B1 light
notes: also called mAb3 ID No. 99
B7: mAb3 (felinized anti-NGF antibody ZTS-768) S428K, feline IgG1a (antibody)
heavy: B1 heavy with A434K
light: B1 light
notes: also called mAb3 ID No. 97
B8: mAb3 (felinized anti-NGF antibody ZTS-768) S428P, feline IgG1a (antibody)
heavy: B1 heavy with A434P
light: B1 light
notes: also called mAb3 ID No. 101
B9: mAb3 (felinized anti-NGF antibody ZTS-768) S428Y and S434F, feline IgG1a (antibody)
heavy: B1 heavy with A434Y, S440F
light: B1 light
notes: also called mAb3 ID No. 115
B10: mAb3 (felinized anti-NGF antibody ZTS-768) S428I, feline IgG1a (antibody)
heavy: B1 heavy with A434I
light: B1 light
notes: also called mAb3 ID No. 96
B11: mAb3 (felinized anti-NGF antibody ZTS-768) S428L and S434F, feline IgG1a (antibody)
heavy: B1 heavy with A434L, S440F
light: B1 light
notes: also called mAb3 ID No. 110
B12: mAb3 (felinized anti-NGF antibody ZTS-768) S428L and S434H, feline IgG1a (antibody)
heavy: B1 heavy with A434L, S440H
light: B1 light
notes: also called mAb3 ID No. 109
B13: mAb3 (felinized anti-NGF antibody ZTS-768) S428Y and S434P, feline IgG1a (antibody)
heavy: B1 heavy with A434Y, S440P
light: B1 light
B14: mAb3 (felinized anti-NGF antibody ZTS-768) S428V, feline IgG1a (antibody)
heavy: B1 heavy with A434V
light: B1 light
notes: also called mAb3 ID No. 105
B15: mAb3 (felinized anti-NGF antibody ZTS-768) S428E, feline IgG1a (antibody)
heavy: B1 heavy with A434E
light: B1 light
notes: also called mAb3 ID No. 92
B16: mAb3 (felinized anti-NGF antibody ZTS-768) S428L, feline IgG1a (antibody)
heavy: B1 heavy with A434L
light: B1 light
notes: also called mAb3 ID No. 98
B17: mAb3 (felinized anti-NGF antibody ZTS-768) S428G, feline IgG1a (antibody)
heavy: B1 heavy with A434G
light: B1 light
notes: also called mAb3 ID No. 94
B18: mAb3 (felinized anti-NGF antibody ZTS-768) S428N, feline IgG1a (antibody)
heavy: B1 heavy with A434N
light: B1 light
notes: also called mAb3 ID No. 100
B19: mAb3 (felinized anti-NGF antibody ZTS-768) S428Y, feline IgG1a (antibody)
heavy: B1 heavy with A434Y
light: B1 light
B20: mAb3 (felinized anti-NGF antibody ZTS-768) S428T, feline IgG1a (antibody)
heavy: B1 heavy with A434T
light: B1 light
notes: also called mAb3 ID No. 104
B21: mAb3 (felinized anti-NGF antibody ZTS-768) S428Y and S434L, feline IgG1a (antibody)
heavy: B1 heavy with A434Y, S440L
light: B1 light
notes: also called mAb3 ID No. 116
B22: mAb3 (felinized anti-NGF antibody ZTS-768) S428Y and S434W, feline IgG1a (antibody)
heavy: B1 heavy with A434Y, S440W
light: B1 light
B23: mAb3 (felinized anti-NGF antibody ZTS-768) S428L and S434W, feline IgG1a (antibody)
heavy: B1 heavy with A434L, S440W
light: B1 light
notes: also called mAb3 ID No. 113
B24: mAb3 (felinized anti-NGF antibody ZTS-768) S428Y and S434H, feline IgG1a (antibody)
heavy: B1 heavy with A434Y, S440H
light: B1 light
notes: also called mAb3 ID No. 114
B25: mAb3 (felinized anti-NGF antibody ZTS-768) S428L and S434P, feline IgG1a (antibody)
heavy: B1 heavy with A434L, S440P
light: B1 light
B26: mAb3 (felinized anti-NGF antibody ZTS-768) S428L and S434L, feline IgG1a (antibody)
heavy: B1 heavy with A434L, S440L
light: B1 light
notes: also called mAb3 ID No. 111
B27: mAb3 (felinized anti-NGF antibody ZTS-768) S428C, feline IgG1a (antibody)
heavy: B1 heavy with A434C
light: B1 light
notes: also called mAb3 ID No. 90
B28: mAb3 (felinized anti-NGF antibody ZTS-768) S428R, feline IgG1a (antibody)
heavy: B1 heavy with A434R
light: B1 light
notes: also called mAb3 ID No. 103
B29: mAb3 (felinized anti-NGF antibody ZTS-768) S428D, feline IgG1a (antibody)
heavy: B1 heavy with A434D
light: B1 light
notes: also called mAb3 ID No. 91
B30: mAb4 (felinized anti-IL31 antibody ZTS-5864) S428A, feline IgG1a (antibody)
heavy: DVQLVESGGDLVKPGGSLRLTCVASGFTFSDYAMSWVRQAPGKGLQWVAGIDSVGSGTSYADSVKGRFTISRDNAKNTLYLQMNSLKTEDTATYYCASGFPGSFEHWGQGTLVTVSSASTTAPSVFPLAPSCGTTSGATVALACLVLGYFPEPVTVSWNSGALTSGVHTFPAVLQASGLYSLSSMVTVPSSRWLSDTFTCNVAHPPSNTKVDKTVRKTDHPPGPKPCDCPKCPPPEMLGGPSIFIFPPKPKDTLSISRTPEVTCLVVDLGPDDSDVQITWFVDNTQVYTAKTSPREEQFNSTYRVVSVLPILHQDWLKGKEFKCKVNSKSLPSPIERTISKAKGQPHEPQVYVLPPAQEELSRNKVSVTCLIKSFHPPDIAVEWEITGQPEPENNYRTTPPQLDSDGTYFVYSKLSVDRSHWQRGNTYTCSVAHEALHSHHTQKSLTQSPGK
VL: QSVLTQPSSVSGTLGQRITISCTGSSSNIGSGYVGWYQQVPGMGPKTVIYYNSDRPSGVPDRFSGSKSGSSGTLTITGLQAEDEADYYCSVYDRTFNAVFGGGT
notes: also called mAb4 ID No. 2
B31: mAb4 (felinized anti-IL31 antibody ZTS-5864) S428C, feline IgG1a (antibody)
heavy: B30 heavy with A433C
VL: B30 VL
notes: also called mAb4 ID No. 3
B32: mAb4 (felinized anti-IL31 antibody ZTS-5864) S428L and S434H, feline IgG1a (antibody)
heavy: B30 heavy with A433L, S439H
VL: B30 VL
notes: also called mAb4 ID No. 22
B33: mAb4 (felinized anti-IL31 antibody ZTS-5864) S428L and S434L, feline IgG1a (antibody)
heavy: B30 heavy with A433L, S439L
VL: B30 VL
notes: also called mAb4 ID No. 24
B34: mAb4 (felinized anti-IL31 antibody ZTS-5864) S428L and S434F, feline IgG1a (antibody)
heavy: B30 heavy with A433L, S439F
VL: B30 VL
notes: also called mAb4 ID No. 23
B35: mAb4 (felinized anti-IL31 antibody ZTS-5864) S428D, feline IgG1a (antibody)
heavy: B30 heavy with A433D
VL: B30 VL
notes: also called mAb4 ID No. 4

Substitutions are numbered along the chain they refer to. Numbers in names are those of the source.

The target in the assay is T1, Feline FcRn (complex of FcRn-α subunit and β-microglobulin, C-terminal His tag) (feline, UniProt A0ABI7ZNY9 23-296; Q5MGS7 21-118).
T1 construct: treated here as one molecule
The assay can be described thus: SPR Biacore, biotin-FcRn on SA chip, pH 6. The procedure:
Feline FcRn was isolated, prepared and mutant Fc IgGs were assayed against feline FcRn according to Strietzel et. al., discussed above. Standard PCR was used to amplify feline FcRn-α subunit and β-microglobulin. FcRn-α subunit and β-microglobulin were co-transfected into HEK 293 cells and the FcRn complex was purified by IMAC affinity purification via the c-terminal His tag. FcRn complex was biotin labeled through BirA enzymatic biotinylatoin reaction. KD's were measured by Biacore T200 (GE Healthcare, Pittsburgh, PA, USA) or Biacore 8K (Cytiva, Marlborough, MA, USA) using a SA sensor chip.
FcRn was captured on the surface of the sensor using a modified SA capture method. 10 mM MES; 150 mM NaCl; 0.005% Tween20; 0.5 mg/mL BSA; pH6 was used as capture, method running buffer and titrations. 1×HBS-P, 0.5 mg/mL BSA; pH7.4 was also used for method running buffer and titrations. Fc mutant IgGs were flowed over receptor surfaces and affinity was determined using T200 evaluation software or Biacore Insight Evaluation software. Blank runs containing buffer only were subtracted out from all runs. Flow cells were regenerated using 50 mM Tris pH8 or pH9. Runs were performed at 15° C.
A general note: Surface plasmon resonance follows binding to a sensor surface in real time, without labels.
Usually Kd stands for the concentration at which binding is half-saturated. The low end stands for higher affinity, the high end for lower affinity. Molecule B1 registered a Kd of 22.3 nM. The value for B2 was 6.75 nM.

As to B3, binding was characterised by a dissociation constant (Kd) of 18.5 nM.

B4 showed a Kd of 53.3 nM.

B5 yielded a Kd of 71.3 nM.

Turning to B6, the Kd turned out to be 6.89 nM. For the molecule B7, the Kd amounted to 22.2 nM. The value for B8 was 17.8 nM; that for B9 was 2.94 nM.

Regarding B10, the Kd amounted to 22.2 nM. The molecule B11 returned a Kd of 3.38 nM. The figure for B12 is 13.1 nM; for B13 it is 16.6 nM.

On to B14, for which binding was put at a Kd of 17.1 nM. The figure for B15 is 57.4 nM. The value for B16 was 15.4 nM; that for B17 was 87.7 nM.

Consider B18, for which the Kd turned out to be 11.2 nM.

Molecule B19 returned a Kd of 58.2 nM. The figure for B20 is 25.8 nM; for B21 it is 34.3 nM. The value for B22 was 0.812 nM; that for B23 was 23.6 nM. The figure for B24 is 3.25 nM; for B25 it is 18.8 nM. B26 registered a Kd of 0.312 nM. Molecule B27 returned a Kd of 26.2 nM. The value for B28 was 27.3 nM; that for B29 was 56.8 nM.

The molecule B30 gave a Kd of 66.4 nM. The figure for B31 is 29 nM. The figure for B32 is 17.7 nM. The value for B33 was 97.2 nM; that for B34 was 84.7 nM.

Regarding B35, the Kd is 190 nM.

The values above are taken from US20260193335A1 (ZOETIS SERVICES, published 2026).
